According to US20140065645:

Target: T1, FITC-labeled polypeptide linker, coupled to a bead
T1 chain: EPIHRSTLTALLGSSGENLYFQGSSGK

B1: Tobacco etch virus (TEV) protease (protein)
chain: GESLFKGPRDYNPISSTICHLTNESDGHTTSLYGIGFGPFIITNKHLFRRNNGTLLVQSLHGVFKVKNTTTLQQHLIDGRDMIIIRMPKDFPPFPQKLKFREPQREERICLVTTNFQTKSMSSMVSDTSCTFPSSDGIFWKHWIQTKDGQCGSPLVSTRDGFIVGIHSASNFTNTNNYFTSVPKNFMELLTNQEAQQWVSGWRLNADSVLWGGHKVFMSKPEEPFQPVKEATQLMNELVYSQ
Intensity of Signal (FITC fluorescence of the linker-bead complex after 1 hour with TEV protease, 1:1 by mass): 10.3 | Intensity of Signal (FITC fluorescence of the linker-bead complex after 1 hour with TEV protease, 1:2 by mass): 9 | Ratio of Signal/Background Signal (1:1 TEV protease): 1.24 | Ratio of Signal/Background Signal (1:2 TEV protease): 1.08 | cleavage of the polypeptide linker: Most polypeptide linkers were cleaved when the mass of the added enzyme was twice the mass of the polypeptide linker.
